The record followed here is US20160304573A1, “FIBROMODULIN PEPTIDE” (The Regents of the University of California, priority 2010, published 2016).

One test concerns the target TGF-β1 (Homo sapiens, UniProt P01137). Kind of test: ELISA analysis of binding with TGF-β1. Particulars: BSA as negative control; FIG. 3. The source says:
Bovine serum albumin (BSA) was used as negative control.
SUMO-CAT from the recombinant bacteria harboring control plasmid pET_SUMO/CAT was used as negative control. To the knowledge of inventors, the TGF-binding sites within FMOD have not been reported.

In the next test the target is T1, TGF-β2 (Homo sapiens, UniProt P61812).
T1 sequence (P61812 303-414 limits assumed): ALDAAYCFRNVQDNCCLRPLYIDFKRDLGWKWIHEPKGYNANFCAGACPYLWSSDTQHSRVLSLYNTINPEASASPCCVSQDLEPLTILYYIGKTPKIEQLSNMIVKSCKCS
Kind of test: TGF-β2 binding to biotinylated FMOD/FMOD peptides on avidin resin; non-bound TGF-β read by Mv1Lu growth inhibition (MTT). The following applies: ratios 1:1, 10:1, 100:1, 1000:1 to TGF-β; FIG. 14. The protocol: (§1) FMOD (whole protein) (SEQ ID NO:1), FMOD peptides and control protein BSA were biotinylated. While, the biotinylated proteins and peptides were bound to commercial available Piece Monomeric Avidin UltraLink Resin (Piece). The amounts of each test peptides/proteins are 1:1, 10:1, 100:1 and 1000:1 to TGF-βs, respectively. After washing out the non-bound residues, appropriate amount TGF-βs (based on the primary test assay) were added to the resin at 4° C. After overnight binding, non-bound TGF-βs were collected, followed by filter sterilization. Then, the TGF-βs residue were diluted 100 times in DEME-0.5% FBS to ensure the concentration was located in the linear region of TGF-βs on Mv1Lu proliferate inhibition.
(§2) Diluted TGF-βs was added to overnight serum-starved Mv1Lu, and fresh TGF-βs media were added for another 24 hour before MTT assay. Samples with no TGF-βs added were employed as controls.

In a further test the target is T2, TGF-β3 (Homo sapiens, UniProt P10600).
T2 sequence (P10600 301-412 limits assumed): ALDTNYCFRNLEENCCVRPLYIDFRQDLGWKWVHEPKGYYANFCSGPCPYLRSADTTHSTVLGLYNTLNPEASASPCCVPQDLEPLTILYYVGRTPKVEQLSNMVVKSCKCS
The experiment in a line: TGF-β3 binding to biotinylated FMOD/FMOD peptides on avidin resin; non-bound TGF-β read by Mv1Lu growth inhibition (MTT). The protocol:
as §1, §2

Test [1] relates to Rat-2 (rat fibroblast cell line) cells. The experiment in a line: Rat-2 cell proliferation, Click-iT Microplate Assay. Particulars: FMOD combined with 100 pM TGF-β1, 48 hours; FIG. 16. The class given is cell-based. Here is the method: 2000 cell/well passage 18 Rat-2 (rat fibroblast cell line) cells were seeded in 96-well plates with 200 μl DMEM-10% FBS for 6 hours, followed by overnight serum starving with 200 μl DMEM-0.5% FBS. 200 μl treatment medium, DMEM-0.5% FBS harboring different concentration of FMOD (SEQ ID NO:1), FMOD-F07-C40 peptide with/without 100 pM TGF-βI (SEQ ID NO:64), was added to the well and refreshed on the second day. After 48 hours treatment, proliferation of Rat-2 cells was evaluated by Click-iT® Microplate Assay (Invitrogen).

The subject of test [2] is Rat-2 cells. The experiment in a line: Rat-2 cell migration by scratching method. It is filed as cell-based. Here is the method:
1×10^6 cell/well Rat-2 cells were seeded in 6-well plated with 3 ml DMEM-10% FBS. After 6 hours for adhesion, fresh DMEM-0.5% FBS medium was changed for serum-starving overnight. After pre-warmed DMEM rinsing, four wounds (each 1 mm wide; two horizontal and two vertical) were scratched employing a 1-ml tip for each treatment group. Cells were rinsed by DMEM for three times, followed by incubation with treatment medium [DMEM-0.5 FBS containing 100 pM (2.5 ng/ml) TGF-β1 (SEQ ID NO:64) or -β3 (SEQ ID NO:66) w/o 200 nM (11.2 μg/ml) FMOD (SEQ ID NO:1)] for 24 hours. Photos were captured at both 0-h and 24-h after the scratching. The unclosed distance was measured and quantified as an average gap (A) and migration index (B). Similar results were reproduced in four independent experiments. The scale bar in (A) equal to 100 The asterisks in (B) present P<0.05.
(§3) Similar to FMOD (whole protein), the effect of FMOD peptides and/or TGF-β on cell migration was also evaluated by scratching method (FIGS. 18C and 25D). At the same time, cell migration/invasion in Matrigel was documented at 100× magnificent after 24 hour treatment and quantitated using DAPI nuclear staining (100 rather than 200× magnification was used because one group's invasion is quite low) (see the results in FIG. 20A and DAPI pictures in FIG. 20B). Passage 18 Rat-2 cells (20,000 cells/well) were used for the test under the treatment of 100 pM TGF-β1 (SEQ ID NO:64)/133 (SEQ ID NO:66) with/without 200 nM FMOD-F07-40C in DMEM-0.5% FBS.

Test [3] concerns Rat-2 cells. Kind of test: Rat-2 cell migration/invasion in Matrigel, DAPI nuclear staining. The class given is cell-based. Here is the method: Cell migration/invasion in Matrigel was documented at 200× magnificent after 24 hour treatment and quantitated using DAPI nuclear staining (results shown in FIG. 19A and repeat results in FIGS. 26B and 26C; DAPI pictures are shown in FIG. 19D).
as §3
Passage 18 Rat-2 cells (20,000 cells/well) were used for the test under the treatment of 100 pM TGF-β1/β3 with/without 200 nM FMOD-F06-40C in DMEM-0.5% FBS (FIG. 20C).

The test system of another test is Rat-2 fibroblasts. The experiment in a line: Z-axes series sequential images, relative height of nodules. It is filed as cell-based. Particulars: FMOD and TGF-β1 treatment. The source says:
But for the nodules formed with FMOD and TGF-β1 treatment (yellow arrows), the cells were stacked on top of one another to a height of about 48 μm.

Chain of TGF-β1 (P01137 279-390 limits assumed): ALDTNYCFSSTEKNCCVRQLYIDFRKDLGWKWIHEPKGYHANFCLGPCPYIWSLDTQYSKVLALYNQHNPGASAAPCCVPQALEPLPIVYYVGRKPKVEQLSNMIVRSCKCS

B1: FMOD: recombinant human fibromodulin whole protein (SEQ ID NO:1) produced in CHO-K1 (protein, listed as Homo sapiens)
chain: MQWTSLLLLAGLFSLSQAQYEDDPHWWFHYLRSQQSTYYDPYDPYPYETYEPYPYGVDEGPAYTYGSPSPPDPRDCPQECDCPPNFPTAMYCDNRNLKYLPFVPSRMKYVYFQNNQITSIQEGVFDNATGLLWIALHGNQITSDKVGRKVFSKLRHLERLYLDHNNLTRMPGPLPRSLRELHLDHNQISRVPNNALEGLENLTALYLQHNEIQEVGSSMRGLRSLILLDLSYNHLRKVPDGLPSALEQLYMEHNNVYTVPDSYFRGAPKLLYVRLSHNSLTNNGLASNTFNSSSLLELDLSYNQLQKIPPVNTNLENLYLQGNRINEFSISSFCTVVDVVNFSKLQVLRLDGNEIKRSAMPADAPLCLRLASLIEI
Take B1: the “binding with TGF-β1 in ELISA assay” value in the test with TGF-β1 is given as “able to bind with TGF-β1”. Besides, the TGF-β2 binding entry in the test with TGF-β2 is given as “TGF-β2 binding that also expectedly increased with higher FMOD protein ratios”. Moreover, the “rank order of binding to TGF-β isoforms” value in the test with TGF-β3 (comparison of FIGS. 13-15) is on record as “TGF-β1>TGF-β2>TGF-β3”. For the same molecule, the TGF-β3 binding entry with TGF-β3 (ratios 1:1, 10:1, 100:1, 1000:1 to TGF-β, FIG. 15) is given as “TGF-β3 binding that also expectedly increased with higher FMOD protein ratios up to 1:100”. Further, in test [1], the fibroblast proliferation entry was “significantly increased fibroblast proliferation”. Further, the “cell migration, scratch” value in the test with Rat-2 cells [2] (200 nM combined with 100 pM TGF-β1, 24 hours) is listed as “induced significant migration”; in the test with Rat-2 cells [2] (200 nM combined with 100 pM TGF-β3, 24 hours), “decreased TGF-β3 mediated inhibition of migration”; in the test with Rat-2 cells [2] (alone (200 nM FMOD or 100 pM TGF-β), 24 hours) it was “induced Rat-2 minimal migration”. Moreover, the “cell migration/invasion in Matrigel” value in the test on Rat-2 cells [3] (200 nM combined with 100 pM TGF-β1, 24 hour treatment) is “induced significant migration”; with Rat-2 cells [3] (200 nM combined with 100 pM TGF-β3, 24 hour treatment), “decreased TGF-β3 mediated inhibition of migration”; with Rat-2 cells [3] (alone (200 nM FMOD or peptide, or 100 pM TGF-β), 24 hour treatment), “induced Rat-2 moderate migration”. In addition, the “height of stacked cells in nodules” value in the test with Rat-2 fibroblasts is on record as “about 48 μm”.
